Source: the DeepSol protein solubility set

Experiment: soluble on expression in E. coli; label from the status in PepcDB or PDB records

Sequence	soluble on expression in E. coli
MSAPLPPRGRGTASNPLNRFAPTHSEAFDDGWEQDVPPIQLTEVREEIARTVISRNQSPDLPFDRSINPYRGCEHGCIYCYARPSHAYWDLSPGIDFETRLIAKSNVASALEQELSKPGYRCAPINLGANTDPYQPLERERRLTRQVLEVLLRFRHPLTIVTKGSLILRDLDLLRELAEQNLVAVMISLTTLDDELKRILEPRAAAPSARLRAIRTLSGNGIPVGVLCSPMIPMVNDMELERLLQAARDAGARSAAYMLLRLPREVGPLFEEWLAAHYPQRAEHVMSLVRQCRGGEVYDSRFGHRFRGQGPFADLLAQRFAVAMKRLGLDRREGFGLDCSRFAVPGAQMALF	not soluble
MNTVCTHCQAINRIPDDRLQDAAKCGRCGHELFDGEVINATGETLDKLLKDDLPVVIDFWAPWCGPCRNFAPIFEDVAEERSGKVRFVKVNTEAERELSARFGIRSIPTIMIFKHGQVVDMLNGAVPKAPFDSWLNEAL	not soluble
GAMSSIFINREYLLPDYIPDELPHREDQIRKIASILAPLYREEKPNNIFIYGLTGTGKTAVVKFVLSKLHKKFLGKFKHVYINTRQIDTPYRVLADLLESLDVKVPFTGLSIAELYRRLVKAVRDYGSQVVIVLDEIDAFVKKYNDDILYKLSRINSEVNKSKISFIGITNDVKFVDLLDPRVKSSLSEEEIIFPPYNAEELEDILTKRAQMAFKPGVLPDNVIKLCAALAAREHGDARRALDLLRVSGEIAERMKDTKVKEEYVYMAKEEIERDRVRDIILTLPFHSKLVLMAVVSISSEENVVSTTGAVYETYLNICKKLGVEAVTQRRVSDIINELDMVGILTAKVVNRGRYGKTKEIGLAVDKNIIVRSLIESDSRFADLWS	soluble
MSLSHVLQELRDVRQASHKVSQGARVLFPCELLSALSLLQTSAQASYQAVVETGLGLARGLREQILKAAAILGVADPSGIYIQPEDEHRLDVVGRLFEAMLRDSCLYPQSRVWIGHLLVPVAKVALRDSCLLETDHHPVWRLLMLLVDACNGNKGEDPAEHALLMQVRETVETVVREFDDDVTLFQTQQAALSMHYEQYVAKTRNTQRHVAECEITEERRQQAQRVADDALKQCLLGHVLPQQIEHFLRRIWCAHVQQVALLNDDNGQALKAVLALGDALLVQWRQASEGSIPERPWLYEERAGILEAFCIAGMTLVEAEAGFANLQHVLAAATPQSSVIATSTQTQSFDTFISVPDTSATSELNTASPSYFRELPLGTWLDFIGIDGRIQSGQLSWVSPISGRLMFVNHRGRRLCVTAPEELSTLMCLGRLRLHRAGDSLMSEGHHHHHH	not soluble
MRQSISNDVATISRISAVPAILQVITESTGLGFAAVARVTEDSWTACAVLDNLGFGLKPGGELELISTICHEIRASHKPVVIDHVAEDELFCAHHTPRRYNFQSYISIPIFLTDGSFFGTICALDPKPAKLTGTPIEAMMVSFARLLALQIEAEENMQRVQ	not soluble
MNVLSPHIALYRLFDVADEIDLGRLSTPRLRLSRARLGAVRFENPPGEMELGVRNVEGLSGLLTARLYEFGVVSLSFRIHLGERVPWEAFLEKGLRIPELPFWEGFFLAELAALEPHLRGALLRPEEKRLSEEFVVYHALGLEGEKAFRPSVDLTPLWMGAEEEFAPEVRREVERYRYSYSTEDLALLGFDRVLILDSEGIWDVADLVEFVHAQLLELSYYDRVLTEELELVPQVLRHRGLWGYGRLQRLRRRLMARHAEIADVKARMEGALRITEDLFYAKIYRAALELYGAYELEKSVEEKLRVLEATYEMVTEEVAHLRTQAVEVAILALIAFEVVRALH	soluble
DYRPGGFHPAFKGEPYKDARYILVRKLGWGHFSTVWLAKDMVNNTHVAMKIVRGDKVYTEAAEDEIKLLQRVNDADNTKEDSMGANHILKLLDHFNHKGPNGVHVVMVFEVLGENLLALIKKYEHRGIPLIYVKQISKQLLLGLDYMHRRCGIIHTDIKPENVLMEIVDSPENLIQIKIADLGNACWYDEHYTNSIQTREYRSPEVLLGAPWGCGADIWSTACLIFELITGDFLFEPDEGHSYTKDDDHIAQIIELLGELPSYLLRNGKYTRTFFNSRGLLRNISKLKFWPLEDVLTEKYKFSKDEAKEISDFLSPMLQLDPRKRADAGGLVNHPWLKDTLGMEEIRVPDRELYGSGSDIPGWFEEVRDHKRH	soluble
MAHHHHHHMVLLPFPPSFYVTTGTTIPFISSPPVAQSGNIYASNESKRLRVDNFFMGFQYSFVADGKLGRGFVFESIEPITTTTASGNNNNNNNNNNNNNNSSEKKSGRGGEERISCRSFALNRGLTGFGVPDEFVRHAESSLVRGVKVWRYTGYSRSGVGPLQEVDYFIRNGTFHAVPWRVQIRRRQTALKELTGSPMTLPNWRYFGGLFFDEVAVPEGPYEDKLERLMQDTTVTLDFYNFVPAEPHPSVFSVPDNCKEVSARFTGNDVDISLAQRFLVDLSLYTPVGREMLREELNSA	not soluble
MGSDKIHHHHHHMYQKGVSTREIGHFIEKILGHSYSASTISQVTDVVTEDITQWQQRPLKKRYSVLYLDGTYLKLRREDVANEVVYLVVGVTEEGYREILGFYVGGQESANGWRNILLDLYSRGLEEVLLGVFDGLAGLEEAMKAVYPKADVQRCVVHKVRNALHAVRKKDQPAVAQDFKPIYQANTYEEAKNRFKEFKENWQKRYPKVVATWEKDLDVLLTFLSYPSTIRPMIYTTNIIERTMKEIKKRTKTMNSLPNEKAAEKIVYLQAIDYNERWATRRLRGFGEAYEALQEMFKQRYSGP	not soluble
QSQGGGSVTKKRKLESSESRSSFSQHARTSGRVAVEEVDEEGKFVRLRNKSNEDQSMGNWQIRRQNGDDPLMTYRFPPKFTLKAGQVVTIWASGAGATHSPPTDLVWKAQNTWGCGSSLRTALINSTGEEVAMRKLVR	soluble
MGHHHHHHGGHMSLIAITGATGQLGHYVIESLMKTVPASQIVAIVRNPAKAQALAAQGITVRQADYGDEAALTSALQGVEKLLLISSSEVGQRAPQHRNVINAAKAAGVKFIAYTSLLHADTSPLGLADEHIETEKMLADSGIVYTLLRNGWYSENYLASAPAALEHGVFIGAAGDGKIASATRADYAAAAARVISEAGHEGKVYELAGDSAWTLTQLAAELTKQSGKQVTYQNLSEADFAAALKSVGLPDGLADMLADSDVGASKGGLFDDSKTLSKLIGHPTTTLAESVSHLFNVNNEGGS	soluble
MGSDKIHHHHHHMKALVEDDLFSKIGLDDVNSGVYDGEWVKPSGKMLTVKSPIDGSEVAKISLATRADYDRLVSRAIEEFKKWRMIPAPKRGLIIREIGDELRKEKKNLGKIVTIEAGKTPSEGEGEIQEMIDISDLALGLSRQLYGLTIASERPYHRMYEQWVPLGPVAVITSFNFPASVWSWNAFIAAVDGDVVIWKPSSKAALTAVAVMKVIERVLKRNNAPNIFFLMVSSGSEGGDWITNDPRIPLVSFTGSVPVGKKISENVAKRLGKSILELGGNNGAIVSDKADIDLALRGVVFGALATAGQRCTTTRRVIVQEKIYDQFLEKLKNAYSTIKVGDPREKGVLVGPLIDEDAVKDYEHAIDLAIKQGGKLIFGGKRITIKGLEGGHYVMPTIIEAKPDMPIVKEETFASILYVMKYRTIEEAIEIHNSVPQGLSSSIFTTDLREEEAFLSPYGSDCGLANVNTSTAGAEIGGAFGGEKDTGGGRESGSDAWKYYMRRQTVTKNWGQTLPLAQDVVFEF	not soluble
MGSDKIHHHHHHMEVLRTENLKSYYILDIFGKKRVVKAVDDVNISIMENEIYGIAGESGCGKSTLLRALFAAIEPPQRIVGGKVLYRENGKEVDVYSLSDEERRRLRWSFISYVPQGSMSVLNPVVKIKETFKDFIESHTTGKTKEEAYEMAKEHIKELGLPIEILNAYPHQLSGGMRQRVTIALATVLSPKVIIADEPTTALDVVTQRGVVQLLKEIQSSRQNTIILVTHDMGVHANVTDRIAIMYAGKIIEEGKTEEIFENPMHPYTKYLIYSLPKFGDKGRRESAPGSPPSLADLPPGCSFHPRCPHAFDRCKKEVPPLKEYLPGHRVACWLVEEGKNAAS	not soluble
MGSDKIHHHHHHMKKYHYSQAPLPFVGQKRMFASEFRKVLKRFSDRTVFVDLFGGSGLLSHITKRERPDATVIYNDHDNYRERLENISRTNALLSDLRRLSEGIPRHRMLSKKMHGMFLERIRREESTGFVDYLTISSSLLFSGKYARNIGELGKLNFYNNMRLSDYCCEGYLDGLEVVYCDYRELVDRYRDSPDVVFLIDPPYMATDISTYRMDWKLTDYLDVLLVLEGHPFIYFTSGKSPILDFCRWMEEHPETGNPFKGAGISTLTARMNYSSSYTDIMLYKEMTEAA	not soluble
MGSDKIHHHHHHMAAPEKTAGSKGEATQMRDAPALVGSDRQKILRAGFIPLVDASVLIAAAEFGFADREGLILDLVKDVSWANVRDRLAFRQFDIAHMLSPMPVASMLGLGSNPSPTITPFSLGRGGNAITLSTRLFARMKALTGLSETAGALENARALKLVLDDMRARGEAPPTLGMTYPFSSHNYEFRYWLAAGGIHPDHDVKLVVVPPPMTSDALAAGAIDGFCVGAPWNIVAAERGVGRIVAAKQDLWPSAPEKVIGMRPEWAESQQETVGRLLTALDAAASWCDLADNHDALSGALADPRYIGAPQSIIRRVLAGEFSIDSQGNRRVIEKYFTFHGDHANYPRQSQSLWIYSQMIRWGQAELSETGVNAALSAYRPDIYRAALGDGKAPGDADIRIEGQDEGDRFVDGFVFDPADIAGYVNSFAVRTSVPVSAPSGEA	not soluble
MTEKKIDFKKEEKKFYAPKRKPERIFVPEMNFLMVDGKGDPDGEEYQKAVQSLYAIAYTIKMSKMGETRLDGYSDFVVPPLEGFWWSEGKFDLKDRDAWLWTSILRQPDFVTEEVLEWAKEVARKKKPDV	not soluble
MRAELQAETEAERLERQAKLHELLHRLRGEPNVLLPFHQALALRPRGERHLGLRTIEVDKVVGSVDRYEDFDHRFLPKTPHTLERWKRLRALQLAGAEFPPIEVYQVGEAYFVKDGNHRVALAKATGQKFIDAHVIALDVPVPIEPGDTPKDLLLKAEYAHFLEKTRLKDLVPGAEEIRFTALGRYDRLLDHIATRRYFKGLEEGREISWEEAVVDWYENLYKPTVEAIRRLGLLRDFPGRTEADLYLWVMDHRYFLARELGVDPGPEGAAKSYEAHFGGVWKRLGGGLKRLLTGR	soluble
MRNLTFLTRCKPLAASVLALMLLGGAAKSFANNDLPDLGTAAVNTFSLEKEMIYGDAYMRVIRSSAPMLNDPVLSQYLTELGNKLVAHATGVKTPFYFFLLQNDEINAFAFFGGHVAVHTGLFLNADNESELASVLGHEITHVTQRHLARSLEAQQKTGPATVAGLLGAILLTIAVPQAGMAALATTQAMATQSKINYTRLHEKEADRIGMQILVDAGFDPNASAEFFGKLASRYRFTTTPPQMLLTHPLPESRISEARDRAQQYPHRYVPDNLNFQLAKARIQVRFSSFSDDAVLSMFEKQLNKQTYGFKEAALYGKALALFRLKKFDESEKIVDELLKIDDNNLFYIDTKTDLLNERKDYAQAIKLLEAQRNLKPTSQVINANLANIYIEAGEPAKAIPLLEDMIFLDKQNQLPYQLLNLAYKKLGNPGMEYFSNAELMALGANYKGAIDQLNFAYRASEGNQLQLARIEARIRQFKQADREMDALKLEHHHHHH	not soluble
MAKRGRPCGFDREQALRRALDVFWEAGYEGVTMAALKEAMGGICAPSMYAAYGSKEALFRSAVELYLSQECQLSKGAFALPTARESIAALLESAAVSYTTEGKPRGCLVDLSTTNFSPANKGVEDYLRDHRRRAARLLRERFARGVADGDVPAGADLDALTSFYSSVLQGLSIQARDGASRQQLLAIGRCAMAAWDSLLAVEAA	not soluble
